# Test results published in patent US20140087995A1 (published 2014).
# Numbered stars: 1 amine (or outer) side, 2 acyl side, 3 side chain; on linkers, the order of the positions; unused ones are H or OH. Bridge positions count the residues as written; N and C are the ends. Side chains are listed from the residue outwards. Ends that are not written are not given here. * marks the point of attachment. C20 diacid = O=C(O)CCCCCCCCCCCCCCCCCCC(=O)*; γGlu = O=C(O)[C@H](CCC(=O)[*:2])N[*:1]
# T1: human calcitonin receptor (human, UniProt P30988 25-474)
# T1 sequence (looked up): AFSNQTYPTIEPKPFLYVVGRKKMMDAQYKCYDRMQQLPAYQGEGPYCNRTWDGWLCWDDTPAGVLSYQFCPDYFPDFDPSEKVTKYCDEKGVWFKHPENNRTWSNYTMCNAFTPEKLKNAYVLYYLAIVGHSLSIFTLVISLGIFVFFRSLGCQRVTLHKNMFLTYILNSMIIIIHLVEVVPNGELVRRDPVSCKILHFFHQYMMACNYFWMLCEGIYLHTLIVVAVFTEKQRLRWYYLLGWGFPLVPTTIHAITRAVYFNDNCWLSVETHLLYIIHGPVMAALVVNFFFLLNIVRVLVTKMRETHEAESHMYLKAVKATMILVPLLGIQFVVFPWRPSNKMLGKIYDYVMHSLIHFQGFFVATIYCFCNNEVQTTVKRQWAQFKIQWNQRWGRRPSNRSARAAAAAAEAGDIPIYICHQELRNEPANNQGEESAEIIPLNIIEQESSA
# Molecular target: T1, human calcitonin receptor
# Assay: cell-based or functional assay
row,Binder,hCTR funct. EC50 [nM]
1,"K([γGlu-C20 diacid])CNTATCATQRLANFLRHSSPNFGAIPSSTNVGSHTY-NH2 (disulfide 2-7; N-terminus assumed; SMILES CC[C@H](C)[C@H](NC(=O)[C@H](C)NC(=O)CNC(=O)[C@H](Cc1ccccc1)NC(=O)[C@H](CC(N)=O)NC(=O)[C@@H]1CCCN1C(=O)[C@H](CO)NC(=O)[C@H](CO)NC(=O)[C@H](Cc1c[nH]cn1)NC(=O)[C@H](CCCNC(=N)N)NC(=O)[C@H](CC(C)C)NC(=O)[C@H](Cc1ccccc1)NC(=O)[C@H](CC(N)=O)NC(=O)[C@H](C)NC(=O)[C@H](CC(C)C)NC(=O)[C@H](CCCNC(=N)N)NC(=O)[C@H](CCC(N)=O)NC(=O)[C@@H](NC(=O)[C@H](C)NC(=O)[C@@H]1CSSC[C@H](NC(=O)[C@@H](N)CCCCNC(=O)CC[C@H](NC(=O)CCCCCCCCCCCCCCCCCCC(=O)O)C(=O)O)C(=O)N[C@@H](CC(N)=O)C(=O)N[C@@H]([C@@H](C)O)C(=O)N[C@@H](C)C(=O)N[C@@H]([C@@H](C)O)C(=O)N1)[C@@H](C)O)C(=O)N1CCC[C@H]1C(=O)N[C@@H](CO)C(=O)N[C@@H](CO)C(=O)N[C@H](C(=O)N[C@@H](CC(N)=O)C(=O)N[C@H](C(=O)NCC(=O)N[C@@H](CO)C(=O)N[C@@H](Cc1c[nH]cn1)C(=O)N[C@H](C(=O)N[C@@H](Cc1ccc(O)cc1)C(N)=O)[C@@H](C)O)C(C)C)[C@@H](C)O, analogue of human amylin; also called compound 60) [N^ε1-[(4S)-4-carboxy-4-(19-carboxynonadecanoylamino)butanoyl]-[Arg17,Pro21,Pro27,His35]-h-amylin]",5.36
2,"K([γGlu-C20 diacid])CNTATCATQRLAHFLRHSSPNFGAIPSSTNVGSNTY-NH2 (disulfide 2-7; N-terminus assumed; SMILES CC[C@H](C)[C@H](NC(=O)[C@H](C)NC(=O)CNC(=O)[C@H](Cc1ccccc1)NC(=O)[C@H](CC(N)=O)NC(=O)[C@@H]1CCCN1C(=O)[C@H](CO)NC(=O)[C@H](CO)NC(=O)[C@H](Cc1c[nH]cn1)NC(=O)[C@H](CCCNC(=N)N)NC(=O)[C@H](CC(C)C)NC(=O)[C@H](Cc1ccccc1)NC(=O)[C@H](Cc1c[nH]cn1)NC(=O)[C@H](C)NC(=O)[C@H](CC(C)C)NC(=O)[C@H](CCCNC(=N)N)NC(=O)[C@H](CCC(N)=O)NC(=O)[C@@H](NC(=O)[C@H](C)NC(=O)[C@@H]1CSSC[C@H](NC(=O)[C@@H](N)CCCCNC(=O)CC[C@H](NC(=O)CCCCCCCCCCCCCCCCCCC(=O)O)C(=O)O)C(=O)N[C@@H](CC(N)=O)C(=O)N[C@@H]([C@@H](C)O)C(=O)N[C@@H](C)C(=O)N[C@@H]([C@@H](C)O)C(=O)N1)[C@@H](C)O)C(=O)N1CCC[C@H]1C(=O)N[C@@H](CO)C(=O)N[C@@H](CO)C(=O)N[C@H](C(=O)N[C@@H](CC(N)=O)C(=O)N[C@H](C(=O)NCC(=O)N[C@@H](CO)C(=O)N[C@@H](CC(N)=O)C(=O)N[C@H](C(=O)N[C@@H](Cc1ccc(O)cc1)C(N)=O)[C@@H](C)O)C(C)C)[C@@H](C)O, analogue of human amylin; also called compound 70) [N^ε1-[(4S)-4-carboxy-4-(19-carboxynonadecanoylamino)butanoyl]-[His14,Arg17,Pro21,Pro27]-h-amylin]",0.715
3,"K([γGlu-C20 diacid])CNTATCATQRLAHFLRHSSPNFGAIPSSTNVGSHTY-NH2 (disulfide 2-7; N-terminus assumed; SMILES CC[C@H](C)[C@H](NC(=O)[C@H](C)NC(=O)CNC(=O)[C@H](Cc1ccccc1)NC(=O)[C@H](CC(N)=O)NC(=O)[C@@H]1CCCN1C(=O)[C@H](CO)NC(=O)[C@H](CO)NC(=O)[C@H](Cc1c[nH]cn1)NC(=O)[C@H](CCCNC(=N)N)NC(=O)[C@H](CC(C)C)NC(=O)[C@H](Cc1ccccc1)NC(=O)[C@H](Cc1c[nH]cn1)NC(=O)[C@H](C)NC(=O)[C@H](CC(C)C)NC(=O)[C@H](CCCNC(=N)N)NC(=O)[C@H](CCC(N)=O)NC(=O)[C@@H](NC(=O)[C@H](C)NC(=O)[C@@H]1CSSC[C@H](NC(=O)[C@@H](N)CCCCNC(=O)CC[C@H](NC(=O)CCCCCCCCCCCCCCCCCCC(=O)O)C(=O)O)C(=O)N[C@@H](CC(N)=O)C(=O)N[C@@H]([C@@H](C)O)C(=O)N[C@@H](C)C(=O)N[C@@H]([C@@H](C)O)C(=O)N1)[C@@H](C)O)C(=O)N1CCC[C@H]1C(=O)N[C@@H](CO)C(=O)N[C@@H](CO)C(=O)N[C@H](C(=O)N[C@@H](CC(N)=O)C(=O)N[C@H](C(=O)NCC(=O)N[C@@H](CO)C(=O)N[C@@H](Cc1c[nH]cn1)C(=O)N[C@H](C(=O)N[C@@H](Cc1ccc(O)cc1)C(N)=O)[C@@H](C)O)C(C)C)[C@@H](C)O, analogue of human amylin; also called compound 66)",0.542
4,"K([γGlu-C20 diacid])CNTATCATQRLAHFLRHSSPNFGAIPSSTPVGSNTY-NH2 (disulfide 2-7; N-terminus assumed; SMILES CC[C@H](C)[C@H](NC(=O)[C@H](C)NC(=O)CNC(=O)[C@H](Cc1ccccc1)NC(=O)[C@H](CC(N)=O)NC(=O)[C@@H]1CCCN1C(=O)[C@H](CO)NC(=O)[C@H](CO)NC(=O)[C@H](Cc1c[nH]cn1)NC(=O)[C@H](CCCNC(=N)N)NC(=O)[C@H](CC(C)C)NC(=O)[C@H](Cc1ccccc1)NC(=O)[C@H](Cc1c[nH]cn1)NC(=O)[C@H](C)NC(=O)[C@H](CC(C)C)NC(=O)[C@H](CCCNC(=N)N)NC(=O)[C@H](CCC(N)=O)NC(=O)[C@@H](NC(=O)[C@H](C)NC(=O)[C@@H]1CSSC[C@H](NC(=O)[C@@H](N)CCCCNC(=O)CC[C@H](NC(=O)CCCCCCCCCCCCCCCCCCC(=O)O)C(=O)O)C(=O)N[C@@H](CC(N)=O)C(=O)N[C@@H]([C@@H](C)O)C(=O)N[C@@H](C)C(=O)N[C@@H]([C@@H](C)O)C(=O)N1)[C@@H](C)O)C(=O)N1CCC[C@H]1C(=O)N[C@@H](CO)C(=O)N[C@@H](CO)C(=O)N[C@H](C(=O)N1CCC[C@H]1C(=O)N[C@H](C(=O)NCC(=O)N[C@@H](CO)C(=O)N[C@@H](CC(N)=O)C(=O)N[C@H](C(=O)N[C@@H](Cc1ccc(O)cc1)C(N)=O)[C@@H](C)O)C(C)C)[C@@H](C)O, analogue of human amylin; also called compound 62)",0.539
5,"K([γGlu-C20 diacid])CNTATCATQRLANFLRHSSPNFGAIPSSTNVGSKTY-NH2 (disulfide 2-7; N-terminus assumed; SMILES CC[C@H](C)[C@H](NC(=O)[C@H](C)NC(=O)CNC(=O)[C@H](Cc1ccccc1)NC(=O)[C@H](CC(N)=O)NC(=O)[C@@H]1CCCN1C(=O)[C@H](CO)NC(=O)[C@H](CO)NC(=O)[C@H](Cc1c[nH]cn1)NC(=O)[C@H](CCCNC(=N)N)NC(=O)[C@H](CC(C)C)NC(=O)[C@H](Cc1ccccc1)NC(=O)[C@H](CC(N)=O)NC(=O)[C@H](C)NC(=O)[C@H](CC(C)C)NC(=O)[C@H](CCCNC(=N)N)NC(=O)[C@H](CCC(N)=O)NC(=O)[C@@H](NC(=O)[C@H](C)NC(=O)[C@@H]1CSSC[C@H](NC(=O)[C@@H](N)CCCCNC(=O)CC[C@H](NC(=O)CCCCCCCCCCCCCCCCCCC(=O)O)C(=O)O)C(=O)N[C@@H](CC(N)=O)C(=O)N[C@@H]([C@@H](C)O)C(=O)N[C@@H](C)C(=O)N[C@@H]([C@@H](C)O)C(=O)N1)[C@@H](C)O)C(=O)N1CCC[C@H]1C(=O)N[C@@H](CO)C(=O)N[C@@H](CO)C(=O)N[C@H](C(=O)N[C@@H](CC(N)=O)C(=O)N[C@H](C(=O)NCC(=O)N[C@@H](CO)C(=O)N[C@@H](CCCCN)C(=O)N[C@H](C(=O)N[C@@H](Cc1ccc(O)cc1)C(N)=O)[C@@H](C)O)C(C)C)[C@@H](C)O, analogue of human amylin; also called compound 35) [N^ε1-[(4S)-4-carboxy-4-(19-carboxynonadecanoylamino)butanoyl]-[Arg17,Pro21,Pro27,Lys35]-h-amylin]",5.46
6,"K([γGlu-C20 diacid])CNTATCATQRLAEFLRHSSPNFGAIPSSTNVGSRTY-NH2 (disulfide 2-7; N-terminus assumed; SMILES CC[C@H](C)[C@H](NC(=O)[C@H](C)NC(=O)CNC(=O)[C@H](Cc1ccccc1)NC(=O)[C@H](CC(N)=O)NC(=O)[C@@H]1CCCN1C(=O)[C@H](CO)NC(=O)[C@H](CO)NC(=O)[C@H](Cc1c[nH]cn1)NC(=O)[C@H](CCCNC(=N)N)NC(=O)[C@H](CC(C)C)NC(=O)[C@H](Cc1ccccc1)NC(=O)[C@H](CCC(=O)O)NC(=O)[C@H](C)NC(=O)[C@H](CC(C)C)NC(=O)[C@H](CCCNC(=N)N)NC(=O)[C@H](CCC(N)=O)NC(=O)[C@@H](NC(=O)[C@H](C)NC(=O)[C@@H]1CSSC[C@H](NC(=O)[C@@H](N)CCCCNC(=O)CC[C@H](NC(=O)CCCCCCCCCCCCCCCCCCC(=O)O)C(=O)O)C(=O)N[C@@H](CC(N)=O)C(=O)N[C@@H]([C@@H](C)O)C(=O)N[C@@H](C)C(=O)N[C@@H]([C@@H](C)O)C(=O)N1)[C@@H](C)O)C(=O)N1CCC[C@H]1C(=O)N[C@@H](CO)C(=O)N[C@@H](CO)C(=O)N[C@H](C(=O)N[C@@H](CC(N)=O)C(=O)N[C@H](C(=O)NCC(=O)N[C@@H](CO)C(=O)N[C@@H](CCCNC(=N)N)C(=O)N[C@H](C(=O)N[C@@H](Cc1ccc(O)cc1)C(N)=O)[C@@H](C)O)C(C)C)[C@@H](C)O, analogue of human amylin; also called compound 51)",5.22
